Here are results for one substance from patent US8361510B2, “Nanogels for cellular delivery of therapeutics” (Georgia Tech Research Corporation, priority 2008, dated 2013).

Where no end group is shown, it is not given here.

The nature of data set [1]: siRNA encapsulation in nanogels ("breathing-in" loading, UV-vis of supernatant). The format is physicochemical. Particulars: lyophilized nanogels reswollen in siRNA solution. An excerpt: In vitro siRNA encapsulation and release. Our group employs a “breathing-in” method for the encapsulation of various macromolecules within nanogels. In a typical method, lyophilized nanogels are resuspended in an aqueous solution containing the macromolecule to be loaded. Importantly, this is done using a loading solution volume that is almost completely imbibed by the swelling nanogels. In this fashion, the hydrogel network imbibes the payload with high efficiency and without relying on simple equilibrium partitioning to determine the maximum loading level. […]
The encapsulation efficiency was determined via ultracentrifugation of the nanogel loading solution and measurement of supernatant siRNA concentration by UV-vis spectroscopy (Shimadzu UV-1601). The moles of siRNA in the loading solution (msiRNA, Loading) and in the supernatant (msiRNA, Supernatant) were determined via interpolation from a separately constructed standard curve of absorbance vs. concentration (R^2>0.99). The encapsulation efficiency (EE) of the system could then be calculated through analysis of the amount of siRNA in the loading solution and the remaining moles of siRNA in the supernatant after nanogel swelling was complete, as illustrated by Equation 1 and in similar encapsulation experiments. […]

Data set [2] can be described thus: siRNA release from nanogels in PBS containing 10% fetal bovine serum. The format is physicochemical. The settings on record: after the first 12 hours, 37° C., PBS with 10% fetal bovine serum. The protocol: [formula] The release of solutes from nanogels was performed in 10% serum to simulate physiological conditions. Release experiments were performed by dispersing 200 μL of loaded nanogels in 2.20 mL of 0.01 M phosphate buffered saline containing 10% fetal bovine serum (equilibrated at 37° C.) in 3.2 mL polycarbonate centrifuge tubes (Beckman Coulter, USA). The nanogel suspension was allowed to incubate at 37° C. while shaking. At specific time points, the tubes were centrifuged for […] at 687 000×g (at 37° C.), and an aliquot of supernatant (0.75 mL) was removed for UV-vis analysis. This volume was replaced with fresh buffer. […] The cumulative siRNA released was calculated by calculating the total moles detected in the supernatant as a function of time, as described in Equation 2.
All release studies were performed in triplicate for statistical analysis, using identical nanogel loading and release conditions.

The test system of data set [3] is Hey cells. The experiment in a line: Trypan blue exclusion assay. The format is cell-based. As for the experimental part: Toxicity Studies—Trypan blue exclusion assay. Hey cells were plated onto an 8-well chamber slide (1×10^4 cells/well) and allowed to adhere overnight at 37° C. and 5% CO2. The media was removed, the wells washed with PBS, and the medium replaced. PNIPMAm nanogels, YSA-conjugated nanogels, and SCR-conjugated nanogels were added to cells and incubated for 72 h. Untreated cells were used as controls. After 72 h, the cells washed with PBS, and a 1:1 solution of trypan blue was added to each well. After 1 min, the trypan blue was removed, the cells were washed with PBS, fixed with 2% (v/v) paraformaldehyde, and air dried. Each well was then viewed via bright field microscopy to determine the number of stained (dead) versus unstained cells. Five fields were viewed for each treatment.

With “YSA-conjugated nanogels: core/shell pNIPMAm nanogels with YSA peptide coupled to shell amines via maleimide (EMCA) (YSAYPDSVPMMSC; also: coupled to nanogel shell amines via maleimide (EMCA))”, the siRNA encapsulation efficiency in data set [1] turned out to be 93±1%. Further, the “siRNA retained in the nanogels” value in data set [2] is given as “approximately 70%”. Further, the “blue (dead) cells” value in data set [3] is reported as “not observed”.
